# Data from US20080254026A1 (published 2008).
# T1: CD40 extracellular Domain 2 GST fusion protein (human, UniProt P25942 61-104)
# T1 construct: Expressed in insect cells with a GP67 secretion signal; not shown: glutathione S-transferase (GST) fusion partner
# T1 chain: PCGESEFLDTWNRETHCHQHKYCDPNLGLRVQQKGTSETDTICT
# T2: CD40 extracellular Domain 1 GST fusion protein (human)
# T2 construct: Expressed in insect cells with a GP67 secretion signal; not shown: glutathione S-transferase (GST) fusion partner
# T2 chain: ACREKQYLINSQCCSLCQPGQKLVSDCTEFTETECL
# T3: CD40 extracellular Domain 3 GST fusion protein (human, UniProt P25942 104-144)
# T3 construct: Expressed in insect cells with a GP67 secretion signal; not shown: glutathione S-transferase (GST) fusion partner
# T3 chain: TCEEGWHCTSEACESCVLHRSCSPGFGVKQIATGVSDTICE
# T4: CD40 extracellular Domain 4 GST fusion protein (human, UniProt P25942 145-187)
# T4 construct: Expressed in insect cells with a GP67 secretion signal; not shown: glutathione S-transferase (GST) fusion partner
# T4 chain: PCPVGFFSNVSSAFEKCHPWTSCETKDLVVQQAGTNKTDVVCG
# T5: SPOTs peptide, spot 22 (YCDPNLGLRV) (human)
# T5 peptide: YCDPNLGLRV
# T6: SPOTs peptide, spot 20 (HKYCDPNLGL) (human)
# T6 peptide: HKYCDPNLGL
# T7: SPOTs peptide, spot 21 (KYCDPNLGLR) (human)
# T7 peptide: KYCDPNLGLR
# T8: CD40 extracellular Domain 4 GST fusion protein (human, UniProt P25942 145-187)
# T8 construct: not shown: GST fusion partner
# T8 chain: T4 chain
# T9: CD40 extracellular Domain 1 GST fusion protein (human)
# T9 construct: Expressed in insect cells with a GP67 secretion signal; not shown: GST fusion partner
# T9 chain: T2 chain
# T10: CD40 extracellular Domain 3 GST fusion protein (human, UniProt P25942 104-144)
# T10 construct: not shown: GST fusion partner
# T10 chain: T3 chain
# T11: CD40 extracellular Domain 2 GST fusion protein (human, UniProt P25942 61-104)
# T11 construct: Expressed in insect cells with a GP67 secretion signal; not shown: GST fusion partner
# T11 chain: T1 chain
# T12: CD40 Domain 2 10-mer peptide KYCDPNLGLR (spot 21) (human)
# T12 construct: Synthetic 10-mer on a SPOTs membrane (Sigma)
# T12 peptide: KYCDPNLGLR
# T13: CD40 Domain 2 10-mer peptide HKYCDPNLGL (spot 20) (human)
# T13 construct: Synthetic 10-mer on a SPOTs membrane (Sigma)
# T13 peptide: HKYCDPNLGL
# T14: CD40 Domain 2 10-mer peptide YCDPNLGLRV (spot 22) (human)
# T14 construct: Synthetic 10-mer on a SPOTs membrane (Sigma)
# T14 peptide: YCDPNLGLRV
# T15: SPOTs peptide, spot 19 (QHKYCDPNLG) (human)
# T15 peptide: QHKYCDPNLG
# T16: SPOTs peptide, spot 18 (HQHKYCDPNL) (human)
# T16 peptide: HQHKYCDPNL
# T17: CD40 Domain 2 SPOTs peptide, spot 22 (YCDPNLGLRV) (human)
# T17 construct: 10mer synthesized on a SPOTs membrane; also called Spot Number 22
# T17 peptide: YCDPNLGLRV
# T18: CD40 Domain 2 SPOTs peptide, spot 20 (HKYCDPNLGL) (human)
# T18 construct: 10mer synthesized on a SPOTs membrane; also called Spot Number 20
# T18 peptide: HKYCDPNLGL
# T19: CD40 Domain 2 SPOTs peptide, spot 19 (QHKYCDPNLG) (human)
# T19 construct: 10mer synthesized on a SPOTs membrane; also called Spot Number 19
# T19 peptide: QHKYCDPNLG
# T20: CD40 Domain 2 SPOTs peptide, spot 18 (HQHKYCDPNL) (human)
# T20 construct: 10mer synthesized on a SPOTs membrane; also called Spot Number 18
# T20 peptide: HQHKYCDPNL
# T21: CD40 Domain 2 SPOTs peptide, spot 21 (KYCDPNLGLR) (human)
# T21 construct: 10mer synthesized on a SPOTs membrane; also called Spot Number 21
# T21 peptide: KYCDPNLGLR
# B1: monoclonal antibody CHIR-5.9 (antibody, human IgG1, kappa)
# heavy: not shown
# light: AIVMTQPPLSSPVTLGQPASISCRSSQSLVHSDGNTYLNWLQQRPGQPPRLLIYKFFRRLSGVPDRFSGSGAGTDFTLKISRVEAEDVGVYYCMQVTQFPHTFGQGTRLEIKRTVAAPSVFIFPPSDEQLKSGTASVVCLLNNFYPREAKVQWKVDNALQSGNSQESVTEQDSKDSTYSLSSTLTLSKADYEKHKVYACEVTHQGLSSPVTKSFNRGEC
# notes: Fully human IgG1 kappa anti-CD40 antibody; Leader residues (1-19 heavy, 1-20 light) left out as stated; also called mAb CHIR-5.9; CHIR-5.9/5.11
# B2: monoclonal antibody CHIR-5.9 (antibody, human IgG1, kappa)
# light: B1 light
# heavy: not shown
# notes: also called mAb 5.9
# B3: monoclonal antibody CHIR-5.9 (antibody, human IgG1, kappa)
# light: B1 light
# heavy: not shown
# notes: Fully human IgG1 kappa anti-CD40 antibody; also called mAb CHIR-5.9
# B4: monoclonal antibody CHIR-12.12 (antibody, human IgG1, kappa)
# heavy: not shown
# light: DIVMTQSPLSLTVTPGEPASISCRSSQSLLYSNGYNYLDWYLQKPGQSPQVLISLGSNRASGVPDRFSGSGSGTDFTLKISRVEAEDVGVYYCMQARQTPFTFGPGTKVDIRRTVAAPSVFIFPPSDEQLKSGTASVVCLLNNFYPREAKVQWKVDNALQSGNSQESVTEQDSKDSTYSLSSTLTLSKADYEKHKVYACEVTHQGLSSPVTKSFNRGEC
# B5: monoclonal antibody CHIR-12.12 (antibody, human IgG1, kappa)
# light: B4 light
# heavy: not shown
# B6: monoclonal antibody CHIR-12.12 (antibody, human IgG1, kappa)
# heavy: not shown
# light: B4 light
# notes: Fully human IgG1 kappa anti-CD40 antibody; Leader residues (1-19 heavy, 1-20 light) left out as stated
# Assays:
# [1] = biological target: T1, CD40 extracellular Domain 2 GST fusion …; test: western blot of CD40 Domain 2, reduced
# [2] = biological target: T2, CD40 extracellular Domain 1 GST fusion …; test: western blot of CD40 domain GST fusion proteins
# Experimental: (§1) To map the antigenic region on CD40, the four extracellular domains of CD40 were cloned and expressed in insect cells as GST fusion proteins. The secretion of the four domains was ensured with a GP67 secretion signal. Insect cell supernatant was analyzed by SDS-PAGE and western blot analysis to identify the domain containing the epitope.
# [3] = biological target: T3, CD40 extracellular Domain 3 GST fusion …; test: western blot of CD40 domain GST fusion proteins
# Experimental: as §1
# [4] = biological target: T4, CD40 extracellular Domain 4 GST fusion …; test: western blot of CD40 domain GST fusion proteins
# Experimental: as §1
# [5] = biological target: T5, SPOTs peptide, spot 22 (YCDPNLGLRV); test: SPOTs peptide membrane, stripped and reprobed
# Text: (§2) SPOTs membranes (Sigma) containing thirty-five 10 mer peptides with a 1-amino-acid offset were generated.
# [6] = biological target: T6, SPOTs peptide, spot 20 (HKYCDPNLGL); test: SPOTs peptide membrane, stripped and reprobed
# Text: as §2
# [7] = biological target: T7, SPOTs peptide, spot 21 (KYCDPNLGLR); test: SPOTs peptide membrane, stripped and reprobed
# Text: as §2
# [8] = biological target: T22, Recombinant soluble CD40-his (human, UniProt P25942 21-193); test: Biacore, antibody captured on protein A CM5 chip, CD40-his as analyte, 1:1 model/global fit
# T22 construct: Analyte in the Biacore experiments; not shown: his tag
# T22 sequence (P25942 21-193 limits assumed): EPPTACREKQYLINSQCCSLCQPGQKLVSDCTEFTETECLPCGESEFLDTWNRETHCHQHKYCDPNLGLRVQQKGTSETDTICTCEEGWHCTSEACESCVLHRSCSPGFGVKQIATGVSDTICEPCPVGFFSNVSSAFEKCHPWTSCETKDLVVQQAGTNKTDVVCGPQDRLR
# Experimental: (§3) Protein A was immobilized onto CM5 biosensor chips via amine coupling. Human anti-CD40 monoclonal antibodies, at 1.5 μg/ml, were captured onto the modified biosensor surface for 1.5 minutes at 10 μl/min. Recombinant soluble CD40-his was flowed over the biosensor surface at varying concentrations. Antibody and antigen were diluted in 0.01 M HEPES pH 7.4, 0.15 M NaCl, 3 mM EDTA, 0.005% Surfactant P20 (HBS-EP). Kinetic and affinity constants were determined using the Biaevaluation software with a 1:1 interaction model/global fit.
# [9] = biological target: T22, Recombinant soluble CD40-his; test: Biacore
# Experimental: as §3
# [10] = biological target: T8, CD40 extracellular Domain 4 GST fusion …; test: SDS-PAGE and Western blot of insect cell supernatant with GST domain fusions
# Experimental: as §1
# [11] = biological target: T9, CD40 extracellular Domain 1 GST fusion …; test: as above
# Experimental: as §1
# [12] = biological target: T10, CD40 extracellular Domain 3 GST fusion …; test: as above
# Experimental: as §1
# [13] = biological target: T11, CD40 extracellular Domain 2 GST fusion …; test: Western blot of GST domain fusions
# [14] = biological target: T12, CD40 Domain 2 10-mer peptide KYCDPNLGLR …; test: SPOTs membrane of 10-mer peptides, spot 21 listed as recognised
# Text: as §2
# [15] = biological target: T13, CD40 Domain 2 10-mer peptide HKYCDPNLGL …; test: SPOTs membrane of 10-mer peptides, spot 20 listed as recognised
# Text: as §2
# [16] = biological target: T14, CD40 Domain 2 10-mer peptide YCDPNLGLRV …; test: SPOTs membrane of 10-mer peptides, spot 22 listed as recognised
# Text: as §2
# [17] = biological target: human CD40 on normal human B cells (PBMC or purified B cells) (human, UniProt P25942 20-277); test: cell-based or functional assay
# Sequence of human CD40 on normal human B cells (PBMC or purified B cells) (P25942 20-277): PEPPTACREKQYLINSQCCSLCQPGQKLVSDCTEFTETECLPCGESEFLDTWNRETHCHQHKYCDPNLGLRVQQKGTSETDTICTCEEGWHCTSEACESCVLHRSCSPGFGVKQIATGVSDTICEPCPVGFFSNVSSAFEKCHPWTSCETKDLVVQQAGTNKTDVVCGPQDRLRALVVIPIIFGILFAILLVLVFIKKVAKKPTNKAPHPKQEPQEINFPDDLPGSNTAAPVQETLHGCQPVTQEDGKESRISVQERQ
# [18] = biological target: T5, SPOTs peptide, spot 22 (YCDPNLGLRV); test: SPOTs peptide membrane, antibody at 10 µg/ml
# Text: as §2
# [19] = biological target: T15, SPOTs peptide, spot 19 (QHKYCDPNLG); test: SPOTs peptide membrane, antibody at 10 µg/ml
# Text: as §2
# [20] = biological target: T6, SPOTs peptide, spot 20 (HKYCDPNLGL); test: SPOTs peptide membrane, antibody at 10 µg/ml
# Text: as §2
# [21] = biological target: T7, SPOTs peptide, spot 21 (KYCDPNLGLR); test: SPOTs peptide membrane, antibody at 10 µg/ml
# Text: as §2
# [22] = biological target: T16, SPOTs peptide, spot 18 (HQHKYCDPNL); test: SPOTs peptide membrane, antibody at 10 µg/ml
# Text: as §2
# [23] = biological target: human CD40 antigen expressed on the surface of cells (human, UniProt P25942 20-277); test: cell-based or functional assay
# Sequence of human CD40 antigen expressed on the surface of cells (P25942 20-277): as above
# [24] = biological target: T1, CD40 extracellular Domain 2 GST fusion …; test: western blot of CD40 domain GST fusion proteins (Domain 2)
# Experimental: as §1
# [25] = biological target: T17, CD40 Domain 2 SPOTs peptide, spot 22 …; test: SPOTs membrane of 10mer peptides of CD40 Domain 2; spot 22 listed among the results
# Text: as §2
# [26] = biological target: T18, CD40 Domain 2 SPOTs peptide, spot 20 …; test: SPOTs membrane of 10mer peptides of CD40 Domain 2; spot 20 listed among the results
# Text: as §2
# [27] = biological target: T19, CD40 Domain 2 SPOTs peptide, spot 19 …; test: SPOTs membrane of 10mer peptides of CD40 Domain 2; spot 19 listed among the results
# Text: as §2
# [28] = biological target: T20, CD40 Domain 2 SPOTs peptide, spot 18 …; test: SPOTs membrane of 10mer peptides of CD40 Domain 2; spot 18 listed among the results
# Text: as §2
# [29] = biological target: T21, CD40 Domain 2 SPOTs peptide, spot 21 …; test: SPOTs membrane of 10mer peptides of CD40 Domain 2; spot 21 listed among the results
# Text: as §2
binder,measurement,setting,value
B1,binding result,[1],binds
same,binding result,[2],no binding
same,binding result,[3],no binding
same,binding result,[4],no binding
B2,binding result,[5],binds
same,binding result,[6],binds
same,binding result,[7],binds
same,Kd,[8],12.2 nM
same,Kd,[9],12 nM
same,binding result,[10],no binding
same,binding result,[11],no binding
same,binding result,[12],no binding
same,binding result,[13],binds
B3,binding result,[14],binds
same,binding result,[15],binds
same,binding result,[16],binds
B4,IC50(nM) for inhibition of CD40L-induced PBMC proliferation; PBMC-025 Donor#1,[17],24.2 nM
same,IC50(nM) for inhibition of CD40L-induced PBMC proliferation; PBMC-025 Donor#2,[17],66 nM
same,IC50(nM) for inhibition of CD40L-induced PBMC proliferation; PBMC-026 Donor#1,[17],45 nM
same,IC50(nM) for inhibition of CD40L-induced PBMC proliferation; PBMC-026 Donor#2,[17],84 nM
same,IC50(nM) for inhibition of CD40L-induced PBMC proliferation; PBMC-028 Donor#1,[17],30.1 nM
same,IC50(nM) for inhibition of CD40L-induced PBMC proliferation; PBMC-028 Donor#2,[17],34.7 nM
same,IC50(nM) for inhibition of CD40L-induced PBMC proliferation; PBMC-029 Donor#1,[17],28.1 nM
same,IC50(nM) for inhibition of CD40L-induced PBMC proliferation; PBMC-029 Donor#2,[17],55.4 nM
same,IC50(nM) for inhibition of CD40L-induced PBMC proliferation; PBMC-030 Donor#1,[17],35.5 nM
same,IC50(nM) for inhibition of CD40L-induced PBMC proliferation; PBMC-030 Donor#2,[17],103 nM
same,IC50(nM) for inhibition of CD40L-induced PBMC proliferation; PBMC-032 Donor#1,[17],40.4 nM
same,average IC50(nM) for inhibition of CD40L-induced PBMC proliferation,[17],49.6 nM
B5,Kd,[8],0.51 nM
same,binding result,[18],binds
same,binding result,[19],binds
same,binding result,[20],binds
same,binding result,[21],binds
same,binding result,[22],binds
same,Kd,[9],0.5 nM
same,binding result,[10],no binding
same,binding result,[11],no binding
same,binding result,[12],no binding
same,binding result,[13],binds
same,"IC50: antibody concentration to inhibit 50% of CD-40 ligand-induced lymphocyte proliferation, average of 6 donors",[23],0.047 nM
B6,binding result,[24],binds
same,binding result,[25],binds
same,binding result,[26],binds
same,binding result,[27],binds
same,binding result,[28],binds
same,binding result,[29],binds
same,binding result,[2],no binding
same,binding result,[3],no binding
same,binding result,[4],no binding
